The target in the assay is T1, c-Met on EBC-1 cells (UniProt P08581 25-1390, limits assumed).
T1 construct: whole, on cells; EBC-1 is a human lung cancer line; also called c-Met on the cell surface
Description: flow cytometry on EBC-1 cells; antibody bound at pH 7.4, cells fixed, then buffers of pH 1.5 to 7.4. On the procedure: In order to examine the degree of influence of pH conditions on the binding of anti-c-Met antibody and c-Met, the antibody was reacted with c-Met to form a binding therebetween, and then, treated with buffer with various pH to change the pH conditions, and then, the amount of the antibody which maintain the binding to the antigen (c-Met) at a certain pH was measured.
In particular, EBC-1 cells (ATCC) were counted and seeded in e-tubes at the amount of about 3×10⁵ cells per tube. As a medium, RPMI-1640 (Gibco) was employed. The cell culture was washed with phosphate buffer saline (PBS; pH 7.4) to remove the medium, and treated with each of c-Met antibodies A, B, and C, and c-Met bispecific antibody A, provided in Example 1, at the amount of 1 μg/ml per a tube, and then, kept in ice for 30 minutes. The obtained cells were treated with 4% formaldehyde for 10 minutes to be fixed. After washing with PBS(pH7.4), the cells treated with FACS buffer with various pH (0.2%(v/v) FBS (Fetal bovine serum) in PBS, pH 1.5, 2.0, 2.5, 3.0, 4.0, 5.0, 6.0, or 7.4) and kept in ice for 5 minutes. […] The c-Met antibody attached to cell surface was quantified by Flow cytometry (BD, FACS Cantoll).

T1 sequence (P08581 25-1390 limits assumed): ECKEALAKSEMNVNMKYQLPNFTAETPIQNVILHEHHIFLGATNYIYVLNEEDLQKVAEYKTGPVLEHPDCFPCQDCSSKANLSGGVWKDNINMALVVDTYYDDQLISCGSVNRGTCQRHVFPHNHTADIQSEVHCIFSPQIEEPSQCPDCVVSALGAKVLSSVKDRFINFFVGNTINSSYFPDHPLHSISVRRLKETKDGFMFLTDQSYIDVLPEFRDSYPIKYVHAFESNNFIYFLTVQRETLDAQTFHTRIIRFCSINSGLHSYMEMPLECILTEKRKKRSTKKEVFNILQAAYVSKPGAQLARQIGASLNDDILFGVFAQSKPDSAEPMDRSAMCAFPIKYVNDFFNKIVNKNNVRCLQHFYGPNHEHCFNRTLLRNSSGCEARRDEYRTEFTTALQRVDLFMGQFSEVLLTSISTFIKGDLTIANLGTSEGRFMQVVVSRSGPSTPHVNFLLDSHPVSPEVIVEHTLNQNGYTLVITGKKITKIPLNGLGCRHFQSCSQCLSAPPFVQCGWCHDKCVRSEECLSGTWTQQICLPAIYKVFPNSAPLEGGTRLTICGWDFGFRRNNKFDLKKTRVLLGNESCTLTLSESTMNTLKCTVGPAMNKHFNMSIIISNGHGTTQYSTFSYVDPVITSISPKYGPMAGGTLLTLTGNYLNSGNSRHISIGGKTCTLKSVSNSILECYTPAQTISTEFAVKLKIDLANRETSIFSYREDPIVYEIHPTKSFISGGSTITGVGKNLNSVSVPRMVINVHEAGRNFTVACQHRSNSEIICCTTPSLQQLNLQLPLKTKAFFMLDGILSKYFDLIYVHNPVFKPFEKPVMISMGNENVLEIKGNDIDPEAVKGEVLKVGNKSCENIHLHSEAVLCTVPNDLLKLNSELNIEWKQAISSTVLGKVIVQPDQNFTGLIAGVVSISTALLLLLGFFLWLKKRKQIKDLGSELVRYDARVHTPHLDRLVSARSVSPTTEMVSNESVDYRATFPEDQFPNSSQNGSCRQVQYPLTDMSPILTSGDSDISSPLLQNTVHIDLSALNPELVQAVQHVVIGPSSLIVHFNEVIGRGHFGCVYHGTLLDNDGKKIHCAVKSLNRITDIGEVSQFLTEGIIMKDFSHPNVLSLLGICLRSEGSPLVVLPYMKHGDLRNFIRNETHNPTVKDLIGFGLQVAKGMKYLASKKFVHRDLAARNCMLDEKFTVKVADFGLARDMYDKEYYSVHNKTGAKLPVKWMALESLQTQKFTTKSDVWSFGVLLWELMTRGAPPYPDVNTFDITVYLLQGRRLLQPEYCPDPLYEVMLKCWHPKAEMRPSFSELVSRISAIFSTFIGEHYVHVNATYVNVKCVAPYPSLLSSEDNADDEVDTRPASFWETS

B1: Anti-c-Met antibody A (antibody, human IgG2, kappa, V domains shown)
VH: EVQLVESGGGLVQPGGSLRLSCAASGFTFTDYYMSWVRQAPGKGLEWLGFIRNKANGYTTEYSASVKGRFTISRDNSKNTLYLQMNSLRAEDTAVYYCARDNWFAYWGQGTLVTVSS
VL: DIQMTQSPSSLSASVGDRVTITCKSSQSLLASGNQNNYLAWYQQKPGKAPKMLIIWASTRVSGVPSRFSGSGSGTDFTLTISSLQPEDFATYYCQQSYSRPYTFGQGTKVEIKR
notes: IgG2 antibody
For B1, the binding result is reported as “binds”.

B2: Anti-c-Met/anti-EGFR bispecific antibody A (bispecific antibody, human IgG2, kappa)
heavy: EVQLVESGGGLVQPGGSLRLSCAASGFTFTDYYMSWVRQAPGKGLEWLGFIRNKANGYTTEYSASVKGRFTISRDNSKNTLYLQMNSLRAEDTAVYYCARDNWFAYWGQGTLVTVSSASTKGPSVFPLAPCSRSTSESTAALGCLVKDYFPEPVTVSWNSGALTSGVHTFPAVLQSSGLYSLSSVVTVPSSNFGTQTYTCNVDHKPSNTKVDKTVERKCCVECPPCPAPPVAGPSVFLFPPKPKDTLMISRTPEVTCVVVDVSHEDPEVQFNWYVDGVEVHNAKTKPREEQFNSTFRVVSVLTVVHQDWLNGKEYKCKVSNKGLPAPIEKTISKTKGQPREPQVYTLPPSREEMTKNQVSLTCLVKGFYPSDIAVEWESNGQPENNYKTTPPMLDSDGSFFLYSKLTVDKSRWQQGNVFSCSVMHEALHNHYTQKSLSLSPGKGGGGSGGGGSEVQLLESGGGLVQPGGSLRLSCAASGFTFSNYDMSWVRQAPGKCLEWVSGISHSSGSKYYADSVKGRFTISRDNSKNTLYLQMNSLRAEDTAVYYCAKDATPRPLKPFDYWGQGTLVTVSSGGGGSGGGGSGGGGSQSVLTQPPSASGTPGQRVTISCTGSSSNIGNNDVSWYQQLPGTAPKLLIYDDNKRPSGVPDRFSGSKSGTSASLAISGLRSEDEADYYCGSWDASLNAYVFGCGTKLTVLG
light: DIQMTQSPSSLSASVGDRVTITCKSSQSLLASGNQNNYLAWYQQKPGKAPKMLIIWASTRVSGVPSRFSGSGSGTDFTLTISSLQPEDFATYYCQQSYSRPYTFGQGTKVEIKRTVAAPSVFIFPPSDEQLKSGTASVVCLLNNFYPREAKVQWKVDNALQSGNSQESVTEQDSKDSTYSLSSTLTLSKADYEKHKVYACEVTHQGLSSPVTKSFNRGEC
notes: Anti-c-Met antibody A (IgG2) with an anti-EGFR scFv (VH-linker-VL) linked to the C-terminus of its Fc; also called c-Met bispecific antibody A
For the molecule B2, the binding result was “binds”.

The record behind these values is patent US20160161500A1, “METHOD OF SCREENING AN ANTIBODY” (SAMSUNG ELECTRONICS CO., LTD., priority 2014, published 2016).
